Source: the RNAGym collection of RNA variant scans (doi:10.1073/pnas.2313332121)

B1: TPR t1 (parent)
chain: GACCAAUCUGCCCUCAGAGCUCGAGAACAUCUUCGGAUGCAGAGGAGGCAGGCUUCGGUGGCGCGAUAGCGCCAACGUCCUCAACCUCCAAUGCAUCCCACCACAUGAUGAUGCCUGAAGAGCCUUGGUUUUUUG

Variants of: B1
Assay: polymerase ribozyme fitness, log enrichment relative to wild type (log ratio); higher = more active; in vitro selection for triplet polymerase activity
Procedure, shortened: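 A single round of triplicate in vitro selection, including frozen incubation at −7 °C, was applied to PCR-built, transcribed mutant libraries of each subunit of a heterodimeric triplet polymerase ribozyme. Illumina sequencing of input and output libraries retained genotypes with ≥10 input reads and ≥1 read per output. Fitness is the base-2 logarithm of genotype enrichment divided by wild-type enrichment, from inverse-variance-weighted replicate averages.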

| Variant | polymerase ribozyme fitness (log ratio) |
| --- | --- |
| GACCAAUCUGCCCUCCGAGCUCGAGAACAUCUUCGGAUGCAGAGGAGGCAGACUUCGGUAGCGCGAUAGCGCCAACGUCCUCAACCUCCAAUGCAUCCCACCACAUGAUGAUGCCUGAAGAGCCUUGGUUUUUUG [A16C G52A G60A] | -2.03 |
| GACCAAUCUGCCCUCGGAGCUCGAGAACAUCUUCGGAUGCAGAGGAGGCUGGCUUCGGUGGCGCGAUAGCGCCAACGUCCUCAACCUCCAAUGCAUCCCACCACAUGAUGAUGCCUGAAGAGCCUUGGUUUUUUG [A16G A50U] | -2.5 |
| GACCAAUCUGCCCUCGGAGCUCGAGAACAUCUUCGGAUGCAGAGGAGGCUGGAUUCGGUGGCUCGAUAGCGCCAACGUCCUCAACCUCCAAUGCAUCCCCCCACAUGAUGAUGGCUGAAGCGCCUUGGUUUUUUG [A16G A50U C53A G63U A100C C114G A121C] | -7.46 |
| GACCAAUCUGCCCUCGGAGCUCGAGAACAUCUUCGGAUGCAGAGGAGGCAGGCUUCGGUGGCGCGAUAGCGGCAACGUCCUCAACCUCCAAUGCAUCCCACCACAUGAUGAUGCCUGAAGAGCCUUGGUUUUUUG [A16G C72G] | -1.66 |
| GACCAAUCUGCCCUCCGAGCUCGAGAACAUCUUCGGAUGCAGAUGAGGCAGGCUUCGGUGGCGCGAUAUCGCCAACGUCCUCAACCUCCAAUGCAUCCCACCACAUGAUGAUGCCUGAAGAGCCGUGGUUUUUUG [A16C G44U G69U U125G] | -2.18 |
| GACCAAUCUGCCCUCGGAGCUCGAGAACAUCUUCGGAUGUAGUGGAGGCAGGCUUCGGUGGCGCGAUAGCGGCAACGUCCUCAACCUCCAAUGCAUCCCACCACAUGAUGAUGCCUGAAGAGCCUUGGUUUUUUG [A16G C40U A43U C72G] | -3.42 |
| GACCAAUCUGCCCUCCGAGCUCGAGAACAUCUUCGGAUGCAGAGGAGGCAGGCUUCGGUGGCGCGAUAGCGCCAACGUCCUCAACCUCCAAUGCAUCCCACCACAUGAUGAUGCCUGAAGAGCGUUGGUUUUUUG [A16C C124G] | 1 |
| GACCAAUCUGCCCUCGGAGCUCGAGAACAUCUUCGGAUGCAGAGGAGGCAGGCUUAGGUGGCGCGAUAGCUCCAACGUCCUCAACCUCCAAUGCAUCCCACCACAUGAUGAUGCCUGAAGAGCAUUGGUAUUUUG [A16G C56A G71U C124A U130A] | 0.162 |
| GACCAAUCUGCCCUCCGAGCUCGAGAACAUCUUCGGAUGCAGAGGAGGCAGGCUUCGGUGGCGCGAUAGCGCCAACGUCCUCAACCUCCAAUGCAUCCCACCACAUGAUGAGGCCUGAAGAGCCUUGGUUUUUUG [A16C U112G] | -2.88 |
| GACCAAUCUGCCCUCCGAGCUCGAGAACAUCUUCGGAUGCAGAGGAGGCAGGCUUCGGUGGCGCGAUAGCGCCAACCUCCUCAACCUCCAAUGCAUCCCACCACAUGAUGAUGCCUGAAUAGUCUUGGUUUUUUG [A16C G77C G120U C123U] | -2.57 |
| GACCAAUCUGCCCUCGGAGCUCGAGAACAUCUUCGGAUGGAGAGGAGGCAGGCUUCGGUGGCGCGAUAGCGCCAACGUCCUCAACCUCCAAUGCAUCCCACCACAUGAUGAUGCCUGAAGAGCAUUGGUUUUUUG [A16G C40G C124A] | 0.0509 |
| GACCAAUCUGCCCUCGGCGCUCGAGAACAUCUUCGGAUGCAGAGGAGGCAGGCGUCGGUGGCGCGAUAGCGCCAACGUCCUCAACCUCCAAUGCAUCCCACCACAUGAUGAUGCCUGAAGGGCCUUGGUUUUUUG [A16G A18C U54G A121G] | 0.49 |
| GACCAAUCUGCCCUCGGAGCUCGAGAACAUCUUCGGAUGCAGAGGAGGCAGGCUUCGGUGGCGCGAUAGUGCCAACGUCCUGAACCUCCAAUGCAUCCCACCACAUGAUGAUGCCUGAAGAGCCUUGGUUUUUUG [A16G C70U C82G] | -2.05 |
| GACCAAUCUGCCCUCGGAGCUCGAGAACAUCUUCGGAUGCAGAGGAGGCAGGGUUCGAUGGCGCGAUAGCGCCAACGUCCUCAACCUCCACUGCAUCCCACCACAUGAUGAUGCCUGAUGAGCCUUGGUUUUUUG [A16G C53G G58A A91C A119U] | -4.1 |
| GACCAAUCUGCCCUCGGAGCUCGAGAACAUCUUAGGAUGCAGAGGAGGCAGGCUUCGGUGGCGCGAUAGCGCCAACGUCCUCAACCUCCAAUGCAUCCCACCACAUGAUGAUGCCUGAAGAGCCUUGGUUUUUUG [A16G C34A] | -3.22 |
| GACCAAUCUGCCCUCCGAGCUCGAGAACAUCUUCGGAUGCAGAGGAUGCAGGCUUCGGUGGCGCGAUAGCGCCAACGUCCUCAACCUCCAAUGCAUCCCACCACAUGAUGAUGCCUGAAGAGCCUUGGUUUUUUG [A16C G47U] | -3.93 |
| GACCAAUCUGCCCUCGGAGCUCGAGAACAUCUUCGGUUGCAGAGGAGGCAGGCUUCGGUGGCGCGAUAGCUCCAACGUCCUCAACCUCCGAUGCAUCCCACCACAUGAUGAUGCCUGAAGAGCCUUGGUUUUUUG [A16G A37U G71U A90G] | -1.9 |
| GACCAAUCUGCCCUCCGAGCUCGAGAACAUCUUCGGAUGCAGAGGAGGCAGGCUUCGGUGCCGCGAUAGCGCCAACGUCCUCAACCUUCAAUGCAUCCCACCACAUGAUGAUGCCUGAAGAGCCUUGGUUUUUUG [A16C G61C C88U] | -4.85 |
| GACCAAUCUGCCCUCGGAGCUCGAGAACAUCUUCGGAUGCUGAGGAGGCAGGCUUCGGUGGCGCGAUAGCGUCAACGUCCUCAACCUCCAAUGCAUCCCACCACACGAUGAUGCCUGAACAGCCUUGGUUUUUUG [A16G A41U C72U U106C G120C] | -1.7 |
| GACCAAUCUGCCCUCCGAGCUCGAGAACAUCUUCGGAUGCAGAGGAGGCAGGCUUCGGUGGCGCGAUAGCGCCAACUUCCUCAACCUCCAAUGCAUCCCACCACAUGAUGAUGCCUGAGGAGCCUUGGUUUUUUG [A16C G77U A119G] | 0.8 |
| GACCAAUCUGCCCUCCGAGCUCGAGAACAUCUUCGGAUGCAGAGGAGGCAGGCUUCGGUGGCGCGAUAGCGCCAACGUCCUCAACCCCCAAUGCAUCCCACCACAUGAUGAUGCCUGAAGAGCCUUGGUUUUUUG [A16C U87C] | -2.31 |

| Variant | polymerase ribozyme fitness (log ratio) |
| --- | --- |
| GACCAAUCUGCCCUCGGAGCUCGAGAACAUCUUCGGGUGCAGAGGAGGCAGGCUUCGGUGGCGCGAUAGCGCCAACGUCCUCAACCUCCAAUGCAUCCCACCACAUGAUGAUGCCUGAAGAGCCUUGGUUUUUUG [A16G A37G] | -1.71 |
| GACCAAUCUGCCCUCGGAGCUCGAGAACAUCUUCGGAUGCAGAGGAGGCAGGCUUCGGUGGAGCGAUAGCGCCAACGUCCUCAACCUCCAAUGCAUUCCACCACAUGAUGAUGCCUGAAGAGCCUUGGUUUUUUG [A16G C62A C97U] | -3.6 |
| GACCAAUCUGCCCUCGGAGCUCGAGAACAUCUUCGGAUGCAGAGGAGGCAGGCUUCGGUGGCGCGAUAGCGGCAACGUCCUCAACCUCCAAUGCAUCCCACCACAUGAUGAUGCCUGAAGAGCCUUGGGUUUUUG [A16G C72G U129G] | -2.89 |
| GACCAAUCUGCCCUCGGAGCUCGAGAACAUCUUCGGAUGCAGAGGAGGCAGGCUUAGGUGGCGCGAUAGCGACAACGUCCUCAACGUCCAAUGCAUCCCACCACAUGAUAAAGCCUGAAGAGCCUUGGUUUUUUG [A16G C56A C72A C86G G110A U112A] | -3.93 |
| GACCAAUCUGCCCUCCGAGCUCGAGAACAUCUUCGGAUGCAGAGGAGGCAGGCUUCGGUGGCGCGAUAGCGCCAACGUCCUCAACCUCCAAUGCAUCCCAUCACAUGAUGAUGCCUGAAGAGCCUUGGUUUUUUG [A16C C101U] | -2.45 |
| GACCAAUCUGCCCUCGGCGCUCGAGAACAUCUUCGGAUGCAGAGGAGGCAGGCGUCGGUGGCGCGAUAGCGCCAACGUCCUCAACCUCCAAUGCAUCCCACCACAUGAUGAUGCCUGAAGAGCCUUGGUUUUUUG [A16G A18C U54G] | -0.225 |
| GACCAAUCUGCCCUCGGAGCUCGAGAUCAUCUUCGGAUGCAGAGGAGGCAGGCUUCGGUGGCGCGAUAGCGCCAACGUCCUCAACCUCCAAUGCAUCCCACCACAUGAUGAUGCCUGAAGAGCCUUGGUUUUUUG [A16G A27U] | -4.63 |
| GACCAAUCUGCCCUCCGAGCUCGAGAACAUCUUCGGAUGCAGAGGAGGCAGGCUUCGGUGGCGCGAUAGCGCCAACGUCCUCAACCUCCAAUGCAUCCCACCACAUGAUGAUGCCUGAAGAGCCUUGGUUUAUUG [A16C U132A] | -2.47 |
| GACCAAUCUGCCCUCGGAGCUCGAGAACAUCUUCGGAUGCAGAGGAGGCAGGCUUCGGUGGCGCGAUAGCGCCAACGUCCUCAACCUCCAUUGCAUCCCACCACAUGAUGAUUCCUGAAGAGCCUUGGUUUUUUG [A16G A91U G113U] | -2.28 |
| GACCAAUCUGCCCUCCGAGCUCGAGAACAUCUUCGGAUGCAGACGAGGCAGGCUUCGGUGGCGCGAUAGCGCAAACGUCCUCAACUUCCAAUGCAUCCCACCACAUGAUGAUGCCUGAAUAGCCUUGGUUUUUUG [A16C G44C C73A C86U G120U] | -2.98 |
| GACCAAUCUGCCCUCCGAGCUCGAGAACAUCUUCGGAUGCAGAGGAGGCAGGCUUCGGUGGCGCGAUAUCGCCAACGUCCUCAACCUCCAAUGCAUCCCACCACAUGAUGAUGCCUGAAGAGCCUUGGUUUUUUG [A16C G69U] | -1.81 |
| GACCAAUCUGCCCUCCGAGCUCGAGAACAUCUUCGGAUGCAGAGGAGGCAGGCUGCGGUGGCGCGAUAGCGCCAACGUCCUCAACCUCCAAUGCAUCCCACCACAUGAUGAUGCCUGAAGAGGCUUGGUUUUUUG [A16C U55G C123G] | -0.307 |
| GACCAAUCUGCCCUCCGAGCUCGAGAACAUCUUCGGAUGCAGAGGAGGCAGGCUUCGGUGCCGCGAUAUCGCCAACGUCCACAACCUCCAAUGCAUCCCACCACAUGAUGAUGCCUGAACAGCCUUGGUUUUUUG [A16C G61C G69U U81A G120C] | -3.32 |
| GACCAAUCUGCCCUCCGAGCUCGAGAACAUCUCCGGAUGCAGAGGAGGCAGGCUUCGGUGGGGCGAUAGCGCCAACGUCCACAACCUCCAAUGCAUCCCACCACAUGGUGAUGCCUGAAAAGGCUUGGUUUUUUG [A16C U33C C62G U81A A108G G120A C123G] | -6.36 |
| GACCAAUCUGCCCUCGGAGCUCGAGAACAUCUUCGGAUGUAGAGGAGGCUGGCUGCGGUGGCGCGAUAGUGCCAACGUUCUCAACCUCCAACGCAUCCCACCACAUGAUGAAGCCUGAAGAGCCUUGGUUUUUUG [A16G C40U A50U U55G C70U C79U U92C U112A] | -7.45 |
| GACCAAUCUGCCCUCCGAGCUCGAGAACAUCUUCGGAUGCAGAGCAGGCAGGCUUCGGUGGCACGAUAGCGCCAACGUCCUCAACCUCCAAUGCAUCCCCCCACAUGAUGACGCCUGAAGAGCCUUGGGUUUUUG [A16C G45C G63A A100C U112C U129G] | -2.73 |
| GACCAAUCUGCCCUCCGAGCUCGAGAACAUCUUCGGAUGCAGAGUAGGCAGGCUUCGGUGGCGCGAUAGCGCCAACGUCCUCAACCUCCAAUGCAUCCCACCACAUGAUGAUGCCUGAAGAGCCUUGGUUUUUUG [A16C G45U] | -4.66 |
| GACCAAUCUGCCCUCGGAGCUCGAGAACAUCUUCGGAUGCAGAGGAGGAAGGCUUCGGUGGCGCGAUAGCGCCAACGUUCUCAACCUCCAAUACAUCCCACCACAUGAUGAUGCCUUAAGAGGCUUGGUUUUUUG [A16G C49A C79U G93A G117U C123G] | -2.9 |
| GACCAAUCUGCCCUCGGAGCUCGAGAACUUCUUCGGAUGAAGAGGAGGCAGGCUUCGGUGUCGCGAUAGCGCCAACGUCCUCAACCUCCAAUGCAUCCCACCACAUGAUGAUGCCUGAAGAGCCUUGGUUUUUUG [A16G A29U C40A G61U] | -4.63 |
| GACCAAUCUGCCCUCCGAGCUCGAGAACAUCUUCGGAUGCAGAGGAGGCAGGCUUCGGUGGCGCGAUAGCGCCAACGUCCUCAACCUCCAAUGCAUCCCACCACAUGAAGAUGCCGGAAGAGCCUUGGUUUUUUG [A16C U109A U116G] | -6.51 |
| GACCAAUCUGCCCUCGGAGCUCGAGAACAUCUUCGGAUGCAGAGGAGGGAUGCUUCGGUGGCGCGAUAGCGCCAACGUCCUCAACAUCCAAUGCAUCCCACCACAUGAUGAUGCCUGAAGAGCCUCGGUUUUUUG [A16G C49G G51U C86A U126C] | -4.58 |
